According to patent publication US20220025071A1 (BIOMOLECULAR, published 2022):
Residue numbers refer to the chain shown, from its start. Numbers in names are those of the source. Where two headings read alike, the source gives them in different places.

Assays:
[1] = biological target: T1, CD20 Lipoparticles (UniProt P11836 1-297)
T1 sequence (looked up): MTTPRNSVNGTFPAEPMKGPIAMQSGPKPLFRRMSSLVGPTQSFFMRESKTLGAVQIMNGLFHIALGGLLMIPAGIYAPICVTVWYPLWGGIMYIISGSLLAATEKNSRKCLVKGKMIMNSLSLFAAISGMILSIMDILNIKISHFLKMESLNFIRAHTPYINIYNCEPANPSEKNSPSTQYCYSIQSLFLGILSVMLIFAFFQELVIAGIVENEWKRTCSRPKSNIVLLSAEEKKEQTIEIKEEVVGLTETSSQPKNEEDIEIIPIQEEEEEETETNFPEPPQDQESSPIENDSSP

[2] = biological target: T2, Recombinant human Fc gamma receptor IIa, CD32a 131R (human, UniProt P12318 36-218)
T2 sequence (looked up): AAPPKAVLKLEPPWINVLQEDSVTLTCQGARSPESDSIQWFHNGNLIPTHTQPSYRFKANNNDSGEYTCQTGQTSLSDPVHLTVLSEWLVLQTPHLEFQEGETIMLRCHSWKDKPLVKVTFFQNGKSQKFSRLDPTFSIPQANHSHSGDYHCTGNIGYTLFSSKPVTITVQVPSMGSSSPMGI

[3] = biological target: T3, Recombinant human Fc gamma receptor IIIa, CD16a 158V (human, UniProt P08637 17-208)
[4] = biological target: Recombinant human Fc gamma receptor IIIa, CD16a 158F (human, UniProt P08637 17-208)
[5] = biological target: T4, Recombinant human Fc gamma receptor IIb/c, CD32b/c (human, UniProt P31994 46-217)
T4 sequence (looked up): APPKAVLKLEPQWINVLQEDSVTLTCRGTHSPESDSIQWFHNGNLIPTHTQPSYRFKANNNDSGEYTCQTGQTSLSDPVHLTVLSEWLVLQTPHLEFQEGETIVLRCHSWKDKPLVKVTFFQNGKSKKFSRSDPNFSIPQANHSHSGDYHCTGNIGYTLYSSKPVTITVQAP

[6] = biological target: T5, Recombinant human Fc gamma receptor IIa, CD32a 131H (human, UniProt P12318 36-218)
T5 sequence (looked up): T2 sequence (looked up) with R132H

[7] = biological target: Recombinant human Fc gamma receptor IIIb, CD16b (human, UniProt O75015 17-200)
[8] = biological target: Recombinant human Fc gamma receptor I, CD64 (human, UniProt P12314 16-288)
[9] = biological target: T3, Recombinant human Fc gamma receptor …; remark: listed apart in the source
[10] = biological target: T6, CD19 (UniProt P15391 20-291)
T6 sequence (looked up): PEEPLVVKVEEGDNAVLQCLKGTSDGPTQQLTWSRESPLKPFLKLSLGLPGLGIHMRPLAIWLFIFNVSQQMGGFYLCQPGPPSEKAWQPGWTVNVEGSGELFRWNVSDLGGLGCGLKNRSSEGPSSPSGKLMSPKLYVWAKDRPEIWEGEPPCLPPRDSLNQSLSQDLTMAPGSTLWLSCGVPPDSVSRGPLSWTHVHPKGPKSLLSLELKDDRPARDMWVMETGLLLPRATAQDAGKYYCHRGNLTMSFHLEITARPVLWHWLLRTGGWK

[11] = biological target: T4, Recombinant human Fc gamma receptor …; experiment: SPR (Carterra LSA)

Chain of Recombinant human Fc gamma receptor IIIa, CD16a 158F (P08637 17-208 limits assumed): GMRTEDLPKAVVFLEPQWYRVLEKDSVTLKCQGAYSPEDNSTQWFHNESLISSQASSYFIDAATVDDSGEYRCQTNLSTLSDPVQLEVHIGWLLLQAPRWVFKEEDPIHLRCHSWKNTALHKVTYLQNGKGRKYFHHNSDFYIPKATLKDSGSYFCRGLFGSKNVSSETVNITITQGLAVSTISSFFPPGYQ
Chain of Recombinant human Fc gamma receptor I, CD64 (P12314 16-288 limits assumed): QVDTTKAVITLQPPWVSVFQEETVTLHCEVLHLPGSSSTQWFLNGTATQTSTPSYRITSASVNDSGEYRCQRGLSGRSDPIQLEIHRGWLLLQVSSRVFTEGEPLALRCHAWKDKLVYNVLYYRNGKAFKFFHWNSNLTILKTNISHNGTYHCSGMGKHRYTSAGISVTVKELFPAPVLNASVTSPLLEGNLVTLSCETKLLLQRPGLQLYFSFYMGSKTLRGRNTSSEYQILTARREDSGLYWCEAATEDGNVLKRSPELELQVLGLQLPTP
Chain of Recombinant human Fc gamma receptor IIIb, CD16b (O75015 17-200 limits assumed): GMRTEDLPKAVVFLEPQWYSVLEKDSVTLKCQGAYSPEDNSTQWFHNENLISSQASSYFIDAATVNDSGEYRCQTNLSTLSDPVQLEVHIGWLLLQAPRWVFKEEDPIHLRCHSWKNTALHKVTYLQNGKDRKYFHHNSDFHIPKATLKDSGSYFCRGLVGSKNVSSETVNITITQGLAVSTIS
T3 sequence (P08637 17-208 F176V limits assumed): as the sequence (P08637 17-208 limits assumed) above, with F160V counted along it

B1: Rc66SIDE (one-arm antibody) (antibody, human IgG1, kappa)
light: QIVLSQSPAILSASPGEKVTMTCRASSSVSYIHWFQQKPGSSPKPWIYATSNLASGVPVRFSGSGSGTSYSLTISRVEAEDAATYYCQQWTSNPPTFGGGTKLEIKRTVAAPSVFIFPPSDEQLKSGTASVVCLLNNFYPREAKVQWKVDNALQSGNSQESVTEQDSKDSTYSLSSTLTLSKADYEKHKVYACEVTHQGLSSPVTKSFNRGEC
heavy: QVQLQQPGAELVKPGASVKMSCKASGYTFTSYNMHWVKQTPGRGLEWIGAIYPGNGDTSYNQKFKGKATLTADKSSSTAYMQLSSLTSEDSAVYYCARSTYYGGDWYFNVWGAGTTVTVSAASTKGPSVFPLAPSSKSTSGGTAALGCLVKDYFPEPVTVSWNSGALTSGVHTFPAVLQSSGLYSLSSVVTVPSSSLGTQTYICNVNHKPSNTKVDKKAEPKSCDKTHTCPPCPAPELLGGPDVFLFPPKPKDTLMISRTPEVTCVVVDVSHEDPEVKFNWYVDGVEVHNAKTKPREEQYNSTYRVVSVLTVLHQDWLNGKEYKCKVSNKALPAPEEKTISKAKGQPREPQVYVLPPSRDELTKNQVSLLCLVKGFYPSDIAVEWESNGQPENNYLTWPPVLDSDGSFFLYSKLTVDKSRWQQGNVFSCSVMHEALHNHYTQKSLSLSPGK
chain: CPPCPAPELLGGPDVFLFPPKPKDTLMISRTPEVTCVVVDVSHEDPEVKFNWYVDGVEVHNAKTKPREEQYNSTYRVVSVLTVLHQDWLNGKEYKCKVSNKALPAPEEKTISKAKGQPREPQVYVYPPSRDELTKNQVSLTCLVKGFYPSDIAVEWESNGQPENNYKTTPPVLDSDGSFALVSKLTVDKSRWQQGNVFSCSVMHEALHNHYTQKSLSLSPGK
Kd [1]: 21.4 nM
Kd [2]: 202 nM
Kd [3]: 46.2 nM
Kd [4]: 76.8 nM
Kd [5]: 253 nM
Kd [6]: 255 nM
Kd [7]: 163 nM

B2: Rc66SIDE-P16-Rc66SIDE (antibody, human IgG1, kappa)
light: B1 light
heavy: B1 heavy
chain: B1 chain
Kd [1]: < 0.001 nM
Kd [2]: 1.83 nM
Kd [8]: < 0.001 nM
Kd [3]: 0.257 nM
Kd [4]: 2.71 nM
Kd [5]: 0.556 nM
Kd [6]: 0.808 nM
Kd [7]: < 0.001 nM

B3: B19c66 (one-arm antibody) (antibody, human IgG1, kappa)
light: not shown
heavy: not shown
chain: B1 chain with D14S, E107I
Kd [9]: 234 nM
Kd [10]: 21.8 nM

B4: Rc66SIDE-P4-Rc66SIDE (antibody, human IgG1, kappa)
light: B1 light
heavy: B1 heavy
chain: B1 chain
Kd [1]: < 0.001 nM
Kd [2]: 4.93 nM
Kd [8]: < 0.001 nM
Kd [3]: 1.14 nM
Kd [4]: 3.87 nM
Kd [5]: 3.17 nM
Kd [6]: 2.54 nM
Kd [7]: 1.05 nM

B5: Rc66SIDE-P28-Rc66SIDE (antibody, human IgG1, kappa)
light: B1 light
heavy: B1 heavy
chain: B1 chain
Kd [1]: < 0.001 nM
Kd [2]: 8.11 nM
Kd [8]: 1.14 nM
Kd [3]: 4.98 nM
Kd [4]: 6.62 nM
Kd [5]: 7.28 nM
Kd [6]: 5.42 nM
Kd [7]: 5.64 nM

B6: B19c66AAC9 (one-arm antibody) (antibody, human IgG1, kappa)
light: not shown
heavy: QVQLQQSGAELVRPGSSVKISCKASGYAFSSYWMNWVKQRPGQGLEWIGQIWPGDGDTNYNGKFKGKATLTADESSSTAYMQLSSLASEDSAVYFCARRETTTVGRYYYAMDYWGQGTTVTVSSASTKGPSVFPLAPSSKSTSGGTAALGCLVKDYFPEPVTVSWNSGALTSGVHTFPAVLQSSGLYSLSSVVTVPSSSLGTQTYICNVNHKPSNTKVDKKVEPKSCDKTHTCPPCPAPKRRGGPSVFLFPPKPKDTLMISRTPEVTCVVVDVSHEDPEVKFNWYVDGVEVHNAKTKPREEQYNSTYRVVSVLTVLHQDWLNGKEYKCKVSNKALPAPIEKTISKAKGQPREPQVYVLPPSRDELTKNQVSLLCLVKGFYPSDIAVEWESNGQPENNYLTWPPVLDSDGSFFLYSKLTVDKSRWQQGNVFSCSVMHEALHNHYTQKSLSLSPGK
chain: B1 chain with L9D, L10E, D14S, E107I
Kd [10]: 21 nM

B7: ACE2Fc-740HA201RF/O24A-DHS (bispecific antibody)
chain: not shown
light: not shown
heavy: QAYLQQSGAELVRPGASVKMSCKASGYTFTSYSMHWVKQTPRQGLEWIGAIYPGNDDTSYNQKFKGKATLTVDRSSSTAYMQLSSLTSEDSAVYFCTRDYSNYPFDYWGQGTTLTVSSASTKGPSVFPLAPSSKSTSGGTAALGCLVKDYFPEPVTVSWNSGALTSGVHTFPAVLQSSGLYSLSSVVTVPSSSLGTQTYICNVNHKPSNTKVDKKVEPKSCDKTHTCPPCPAPELLGGPSVFLFPPKPKDTLMISRTPEVTCVVVDVSHEDPEVKFNWYVDGVEVHNAKTKPREEQYNSTYRVVSVLTVDHHDWLNGKEYKCKVSNKALPAPIEKTISKAKGQPREPQVYTLPPCRDELTKNQVSLWCLVKGFYPSDIAVEWESNGQPENNYKTTPPVLDSDGSFFLYSKLTVDKSRWQQGNVFSCSVMHEALHSHYTQKSLSLSPG
notes: also called 15-23
binding result [11]: no binding (tested: up to 2000 nM)
